Data taken from the nanobody polyreactivity screen of Harvey et al. (2022).

Test: yeast display, Sf9 membrane polyspecificity reagent, FACS + sequencing; frameworks hold sequencing errors
Procedure, shortened: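 Galactose induction of a Saccharomyces cerevisiae BJ5465 synthetic nanobody display library ran 36–48 hours. The cells were then stained for 1 hour at 4 °C with 10% biotinylated, detergent-solubilized Sf9 membrane reagent, pulled down on streptavidin microbeads and FACS-sorted into low and high (top ~1%) gates on expression and reagent-binding fluorescence. Labels for polyreactivity follow the gate of origin.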

Sequence | polyreactivity (PSR sort gate)
QVQLVESGGGLVQAGGSLRLSCAASGFTFSRYAMAWYRQAPGKERELVAAITWSGGRTYYADSVKGRFTISRDNAKNTVYLQMNSLKPEATAVYYCAAVYHVWKYHYDYWGQGTQVTVSS | high polyreactivity
QVQLVESGGGLVQAGGSLRLSCAASGFTFSRYAMGWYRPAPGKERELVAAISTRGGRTYYADSVKGRFTISRDNAKNTVYLQMNSLKPEDTAVYYCAADATVGSSDYWGQGTQVTVSS | high polyreactivity
QVQLVESGGGLVQAGGSLRLSCAASGFTFSRYAMGWYRQAPGKERELVAAISYSGGRTYYADSVKGRFTISRDNAKNTVYLQMKSLKPEDTAVYYCNAFFTSSGWRLGYDYWGQGTQVTVSS | high polyreactivity
QVQLVESGGGLVQAGGSLRLSCAASGFTFSRYAMGWYRQAPGKERELVAAITRRGGRTYYADSVKGRFTISRDNAKNTVFLQMNSLKPEDTAVYYCITDAYRLGYDYWGQGTQVTVSS | high polyreactivity
QVQLVESGGGLVQAGGSLRLSCAASGFTFSRYAMGWYRQAPGKEREYVAAISWSGGSTYYADSVKGRFTISRDNAKNTVYLQMNSLKPEDTAVYNCNAGAQLLASQTRYDYWGQGTQVTVSS | low polyreactivity
QVQLVESGGGLVQAGGSLRLSCAASGFTFSRYAMGWYRQAPGTERELVAAITSRGGSTYYADSVKGRFTISRDNAKNTVYLQMNSLKPEDTAVYYCAASGRNRKDGLYEYYYWGQGTQVTVSS | high polyreactivity
QVQLVESGGGLVQAGGSLRLSCAASGFTFSSNAMGWYRQAPGKERELVADINWSGGRTYYADSVKGRFTISRDNAKYTVYLQMNSLKPEDTAVYYCAAVLSWRQYYREYDYWGQGTQVTVSS | high polyreactivity
QVQLVESGGGLVQAGGSLRLSCAASGFTFSSYAMGWYRQAPGKERELVAAISSSGSRTYYADSVKGRFTISRDNAKNTVYLQMNSLKPEDTAVYYCAARPGDGGYYYWGQGTQVTVSS | high polyreactivity
QVQLVESGGGLVQAGGSLRLSCAASGFTFSSYDMGWYRQAPGKERELVAAISRSGGSTYYADSVKGRFTISRDNAKNTVYLQMNCLKPEDTAVYYARAKYSRVTLYQGYGYWGQGTQVTVSS | high polyreactivity
QVQLVESGGGLVQAGGSLRLSCAASGFTFSTNAMGWYRQAPGKERELVAAISKSGVSTYYADSVKGRFTISRDNAKNTVYLQMNSLKPEDTAVYYCAADPKIALYKVWRYDYWGQGTQVTVSS | high polyreactivity
QVQLVESGGGLVQAGGSLRLSCAASGFTFSTYAMGWDRQAPGKERELVAAISRSGGSTYYADSVKGRFTISRDNAKNTVYLQMNSLKPEDTAVYYCAVRPFRSAGGSVTRGAYYYWGQGTQVTVSS | high polyreactivity
QVQLVESGGGLVQAGGSLRLSCAASGFTFSTYDMGWYRQAPRKERELVAAIDYIDGSTYYADSVKGRFTISRDNAKNTVDLQMNCLKPEDTAVYYCAAHYYYDEFGYWGQGTQVTVSS | low polyreactivity
QVQLVESGGGLVQAGGSLRLSCAASGFTFSVNAMGWYRQAPGKERELVAAISSRGGSTYYADSVKGRFTISRDNAKNTVYLQMNSLKPEDTAVYYCAKYPFYRSRHLGYWGQGTQVTVSS | high polyreactivity
QVQLVESGGGLVQAGGSLRLSCAASGFTFSWYVMGWYRQAPGKERELVATITNRGGSTYYADSVKGRFTISRDNAKNTVYLQMNSLKPEDTAVYYCAARNYGKYRTNDYWGQGTQVTVSS | high polyreactivity
QVQLVESGGGLVQAGGSLRLSCAASGFTFSYNAMGWYRQAPGKERELVAAISSGGRTYYADSVKGRFTISRDNAKNTVYLQINSLKPEDTAVYYCNAEPDQYTLRSITNDEDYWGQGTQVTVSS | low polyreactivity
QVQLVESGGGLVQAGGSLRLSCAASGFTFSYYAMGGYRQAPGKERELVAGIDYSGGSTYYADSVKGRFTISRDNAKNTVYLQMNSQKPEDTAVFYCNAVYARKYYYSHGYDYWGQGTQVTVSS | high polyreactivity
QVQLVESGGGLVQAGGSLRLSCAASGFTFSYYAMGWSRQAPGKERELVAAITTSGGRTYYADSVKGRFTISRDNAKNTFYLQMNSLKPEDTAVYYCAATYPRYYSGEFDYWGQGTQVTVSS | high polyreactivity
QVQLVESGGGLVQAGGSLRLSCAASGFTFSYYAMGWYRQAPGKERELVAAITSSAGSTYYADSVKGRFTISRDNAKNTVYLQMNSLKPEDTAVYYCNAVYSKLNGGYDYWGQGTQVTVSS | low polyreactivity
QVQLVESGGGLVQAGGSLRLSCAASGFTFSYYAMGWYRQAPGKERELVAGITTGGGTNYADSVKGRFTISRDNAKNTVYLQMNSLKPEDTAVFYCNADYWYKYDYWGQGTQVTVSS | low polyreactivity
QVQLVESGGGLVQAGGSLRLSCAASGFTFSYYAMGWYRQSPGKERELVASISRSGNTYYADSVKGRFTISRDNAKNTVYLQMKSLKPEDTAVYYCAAKRKSYYSYNFDYWGQGTQVTVSS | high polyreactivity
QVQLVESGGGLVQAGGSLRLSCAASGFTFSYYARGWYRQAPGKERELVAAISINGGRTYYADSVKGRFTISRDNAKNTVYLQMNSLKPEDTAVYYCNAVSYAYTVRMYYWGQVTQVTVSS | high polyreactivity

Sequence | polyreactivity (PSR sort gate)
QVQLVESGGGLVQAGGSLRLSCAASGFTFSYYSMGRYRQAPGKERELVARISFSGTRTYYADSVKGRFTISRDNAKNTVYLQMNSLKPEDTAVYYCARRYRDYGRYGYWGQGTQVTVSS | high polyreactivity
QVQLVESGGGLVQAGGSLRLSCAASGFTFTANGMGWYIQAPGKERELLAAINWSGSRTYYADSVKGRFTISRDNAKNTVYLQMNSLKPEDTAVYYCNTATSKSSYRHYDYWGQGTQVTVSS | high polyreactivity
QVQLVESGGGLVQAGGSLRLSCAASGFTFTAYAMGWYRQAPGKERELVAAISNRGGRTYYADSVKGRFTFSRDNAKNTVYLQMNSLKPEDTAVYYCAAGYSYAQYSYPFLSFAFGYWGQGTQVTVSS | high polyreactivity
QVQLVESGGGLVQAGGSLRLSCAASGFTFTAYARGWYRQAPGKERELVAAINWSGSRTSYADSVKGRFTISRDNAKNTVYLQMNSLKPEDTAVYYCNPATSKSSYRHYDYWGQGTQVTVSS | high polyreactivity
QVQLVESGGGLVQAGGSLRLSCAASGFTFTDNAMGRYRQAPGKERELVAAISEGSGITYYADSVKGRFTISRDNAKNTVYLQMNSLKPEDTAVYYCAADWLSKYDYWGQGTQVTVSS | low polyreactivity
QVQLVESGGGLVQAGGSLRLSCAASGFTFTDYAMGWYRQAPGKERELVAAIYGIGGSTYYADSVKGRFTISRDNAKITVYLKMKSLKPEDTAVYYWNAYRSFTGYDYDYWGQGTQVTVSS | high polyreactivity
QVQLVESGGGLVQAGGSLRLSCAASGFTFTHYAMGWYREAPGKERELVAAISTSVGSKYYADSVKGRFTISRDNAKNTVYVQMNSLKPEDTAVYYFAARRDGWVQWGNYYWGQVTQVTVSS | low polyreactivity
QVQLVESGGGLVQAGGSLRLSCAASGFTFTINAMGWYRQAPGKERELVAAINWRGGSTYYADSVKGRFTISRDNAKNTVYLQMNSLKPEDTAVYYCNAVASIYSYAYPPYWGREHLNYWGQGTQVTVSS | low polyreactivity
QVQLVESGGGLVQAGGSLRLSCAASGFTFTIYAMGWYRPAPGKEMELVAAITGRGGSTYYADSVKGRFTISRDNAKNTVYLRMNSLKPEDTAVYYCADSQRSGHPSYDYWGQGTQVTVSS | high polyreactivity
QVQLVESGGGLVQAGGSLRLSCAASGFTFTKYAMGWYRQAPGKERELVAAITSSGGGTYYADSVKGRFTISRDYAKNTVYLQMNRLKPVDTAVYYCARDSRTGYYYWGQGTQVTVSS | high polyreactivity
QVQLVESGGGLVQAGGSLRLSCAASGFTFTLNAMGWYRQAPGKASEFVAAISTGGSTYYADSVKGRFTISRHNAKNTVYLQMNSRKPEDTAVYYCAAYRYSYHGSYQETYYYWGQGTQVTVSS | high polyreactivity
QVQLVESGGGLVQAGGSLRLSCAASGFTFTLNAMGWYRQAPGKERELVAGISSGGSTNYADSVKGRFTISRDNAKNTVYLQMNSLKPEDTAVYYCAADRGYVWRYDYWGQGTQVTVSS | low polyreactivity
QVQLVESGGGLVQAGGSLRLSCAASGFTFTNYAMGWYRQAPGKEREFVARITWSGGSTYYADSVKGRFTISRDNAKNTVYLQMNSLKPEDTAVYYCAARGWLVRSFIYDYWGQGTQVTVSS | high polyreactivity
QVQLVESGGGLVQAGGSLRLSCAASGFTFTPNAMGWYRQAPGKERELVAAITSDGTTYYADSVKGRFTISRDNAKNTVYLQMNSLNPEDTAVYYCAADGGISAGANSGYDYWGQGTQVTVSS | high polyreactivity
QVQLVESGGGLVQAGGSLRLSCAASGFTFTRNAMGWYRQAPGKEREFVAAITRSGGSTYYADSVKGRFTISRDNAKNTVYLQMNSLKPEDTAVYYCNKRSPSTIRFDYWGQGTQVTVSS | high polyreactivity
QVQLVESGGGLVQAGGSLRLSCAASGFTFTRNAMGWYRQAPGKERELVAAISGSGGSTYYADSVKGRFTISRDNAKNTVYLQMNSLKPEDTAVYYCAAPLPWAYAYDYWGQGTQVTVSS | high polyreactivity
QVQLVESGGGLVQAGGSLRLSCAASGFTFTRYAMGWYRQAPGKERELVAAMTTNSGSRTYYADSVKGRFTISRDNAKNTVYGQMNSLKPEDTAVYYCAADGPVVRGYYWGQGTQVTVSS | high polyreactivity
QVQLVESGGGLVQAGGSLRLSCAASGFTFTRYTMGWYRQAPGKERELVAHITSGDSTNYADSVKGRFTISRDNAKNTVYLQKNSLKPEDTAVYYCNAEVKGFFYDYDYWGQGTQVTVSS | low polyreactivity
QVQLVESGGGLVQAGGSLRLSCAASGFTFTRYTMGWYSQEPGKERELVARITRSGGSTYYADSVKGRFTISRDNAKNTVYLQMNSLKPEDTAVYYCAADTWSYTTRYYYWGQGTQVTVSS | high polyreactivity
QVQLVESGGGLVQAGGSLRLSCAASGFTFTVYAMGWYRQAPGKERELVAAISGIGGSTYYADSVKGRFTISRDNAKNTVYLQMNSLKPEDTAVYYCNAVSGDSGDYWGQGTQVTVSS | low polyreactivity
